Data taken from article PMC1635258.
Where two headings read alike, the source gives them in different places.

Assays:
[1] = biological target: T1, hRPA (replication protein A heterotrimer p70/p32/p14) (human, UniProt P27694;P15927;P35244 1-616;1-270;1-121); test: EMSA
[2] = biological target: T1, hRPA (replication protein A …); test: EMSA; remark: listed apart in the source

T1 sequence (P27694 whole entry, chain 1 of 3): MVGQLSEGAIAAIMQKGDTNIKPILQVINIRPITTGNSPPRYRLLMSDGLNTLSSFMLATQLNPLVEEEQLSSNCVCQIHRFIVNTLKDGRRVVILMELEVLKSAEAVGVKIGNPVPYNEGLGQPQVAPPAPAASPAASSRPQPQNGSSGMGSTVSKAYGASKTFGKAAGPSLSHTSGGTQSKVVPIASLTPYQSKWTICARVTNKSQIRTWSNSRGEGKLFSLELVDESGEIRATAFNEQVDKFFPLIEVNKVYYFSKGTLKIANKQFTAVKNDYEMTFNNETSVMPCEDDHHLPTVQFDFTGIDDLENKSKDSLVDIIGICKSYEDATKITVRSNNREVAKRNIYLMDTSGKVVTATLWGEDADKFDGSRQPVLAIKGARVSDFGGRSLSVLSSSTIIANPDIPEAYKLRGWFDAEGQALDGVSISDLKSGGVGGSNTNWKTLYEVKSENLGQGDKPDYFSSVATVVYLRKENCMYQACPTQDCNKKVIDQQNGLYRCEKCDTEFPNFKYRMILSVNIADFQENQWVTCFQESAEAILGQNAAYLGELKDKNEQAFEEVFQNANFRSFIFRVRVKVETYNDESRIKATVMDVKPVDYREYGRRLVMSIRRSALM
T1 sequence (P15927 whole entry, chain 2 of 3): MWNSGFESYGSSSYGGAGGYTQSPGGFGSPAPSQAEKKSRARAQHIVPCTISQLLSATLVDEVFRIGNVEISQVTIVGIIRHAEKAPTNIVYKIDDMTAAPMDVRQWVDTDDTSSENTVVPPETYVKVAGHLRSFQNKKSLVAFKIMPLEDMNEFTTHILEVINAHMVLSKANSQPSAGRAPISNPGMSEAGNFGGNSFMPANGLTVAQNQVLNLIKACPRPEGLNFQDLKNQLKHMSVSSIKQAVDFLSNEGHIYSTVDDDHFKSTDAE
T1 sequence (P35244 whole entry, chain 3 of 3): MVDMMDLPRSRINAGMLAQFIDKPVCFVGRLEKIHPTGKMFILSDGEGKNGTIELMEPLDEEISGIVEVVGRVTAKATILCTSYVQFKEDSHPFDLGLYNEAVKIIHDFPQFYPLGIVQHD

GGGTTAGGGTTAGGGTTAGGG (structured_DNA) [htelo]
binding result [1]: binds

TTTTTTTTTTTTTTTTTTTTT (ssDNA) [T21]
binding result [2]: binds
